Reference: the DeepSol protein solubility set

assay: soluble on expression in E. coli; label from the status in PepcDB or PDB records

**Q.** For “MGSDKIHHHHHHMLEVPVDRPVEALTIALLRDVKHACAQLGAKFVLAGATARDILMWHLHDIRAPVATRDVDVAVCAVSWESHDALIELLVQTQRFRRHSKQQQKLLFKRSAEDYEGELDIVPFGQIEGPPGEIHWPPDGDIVMTVLGFQEAVDTAQPVSIGEGLVVPVVTLPAFVLLKLIAWKDRRLMKNTDSADLLFVLRNYIDAGNIERTYEQATDLLKAANFDAGLAAAGLLGRDVRGLAYPDTRAALRALLQSADAYETLRLDLQARAAMLLGGFIDDSDALLAAFARELLTEENGSLNGTGPQVGSTGARA”, which “soluble on expression in E. coli” value is on record?
**A.** not soluble

**Q.** With “MGSDKIHHHHHHMLGVCYYPEHWGTEKVEEDFRRMKELGIEYVRIGEFAWSRIESERGKFNWDWLDKTLELAEKMGLKIVLGTPTATPPKWLIDEHPEILPVDKDGRVKNFGSRRHYCFSSPVYREEVKRIVTIIVKRYGKHPAVAGWQTDNEYGCHDTVRCYCPRCKKAFQKWLERKYEGDIKKLNEAWGTVFWSQEYRSFDEIELPNLTPADPNPSHLLDYYRLASDQVVEFNKLQVEIIREYSPGRFITHNFMSGFTDFDHYKLSKDLDFATWDNYPLGHTLVFLRMKGETKNPFDRVGHPDIISFSHDLYRGVGRGRFWVMEQQAGPVNWAPYNLWPAKGAVRLWTWQAFAHGAEVVSYFRWRQAPFAQEQMHSGLLAPDSAPYPGYHEVKQVFEELKNIDINEPVESEVALVFDYETAWVFSIQPHGEGVNYIDLVFRFYSALRRLGLNVDIVPPGSSLDGYKMIVVPSLAIVKEEVLDTFKKYDGLLVLGPRSGSKTETFQIPPEMPPGLLKEIIPVEVRQVESLGDNVETLVWNGKEYPVSIWREDVDPTITEVIARFKDGFGAIFRKENVFYLAFWPNGDFLVDFFEALSKESGIETKRMPEGVRIQRRGEYVFSFNFTSEEVDLEIPTKVQIVLGDQKIPPYGLLIWKENER” as the sequence, how does the “soluble on expression in E. coli” value read?
**A.** not soluble

**Q.** With “MGSDKIHHHHHHMLHATAWRSALFTPTENSATSRDRADCGGIGGMSAAILLSRQGIQVDLVELNPLWAPGGAGITISGPTLRGLREVGVADEVLASGGFWNAVDVCDANSNLTVTVPIAPAVGADELPGVAGIMRTTLAEILGRATRKADTNARLGVTFETLTQDAEGVEVSFNDGSRARYDLVIGADGINSPVRKYVKPEFPGPPFTGQRSWRAVVPRLQENSLMYMGKTTKAGLNPISQTECYLFVLDKREGMDFIAPEQWPMMLAELLEEFGGAVGEFRRGPLDGSLMNHRLLYRPLAGHMINGPWHKGRIVLLGDAVHATTPHLASRAGIAVEGAIVLSEELARRRSLEGAFIAYAGRHYDRARLVVSASGRLGEIERESGSREEHTRIMIETQQALRAPI” as the sequence, how does the “soluble on expression in E. coli” value read?
**A.** not soluble

**Q.** With “MGSDKIHHHHHHMLHQLTVLFKDHLSTDPTVYCTDKYTVYQLADGLRFGIENTILTPRELDLLNLLVERVVTSESDQIVTWRRRLEQPSSEEAHPFRMIHFLFEQLDVRTGEDLQQLLTSFFHPSSWIIPLTSNRLVVIEREDSVSENDLHDFFTALQSDFLMDGKVLIGQQRQSGDLAAQFRLEQAALRELPLLHIERFLPALMRLTLLSNEVRDDLIERFITPLERESRETIDAFCRANLNVSLTAKHLFLHRNSLQYRLDRLTEQTEIDIRSFEGAMFLYTLLLVA” as the sequence, how does the “soluble on expression in E. coli” value read?
**A.** not soluble

**Q.** With “MGSDKIHHHHHHMLICATCAVERDEPAPELCPICTDERQYVPEEGQKWLTLDGLAQQGQQTVLRENEPGLIGIRTEPKVGIGQTAQLVVTHEGSLLWDPVGYVDDSAVNAALERGPVLAIAASHPHMFGVQVEWSHRLGGVPVLVADADRRWLGRNDPVIEYWSGSHTIAEGLTLHQTGGHFPGSAVVHWAAGAAGRGVLLTGDSVYPNPDRRSISFMRSYPNHLPLSGAVALRIAAQLGELEFDRIYGNFNNVIASGAKAALHDSAQRHAAWARGDFDHLT” as the sequence, how does the “soluble on expression in E. coli” value read?
**A.** not soluble

**Q.** For “MGSDKIHHHHHHMLIFQYDFKIEFYNTVNSKNSIGGRLSGLRPRVVITTQNGAPDLNIFIQNTYSENNLITSKKAKLQIFNVPLDFSDFKTADIVKIYYKKFSDQQDYQFIMAGYLGAPVERIGGAENFSFECELYLLSRATFLERKFEYKNFKGSTIADAINYAFKDKAIFFMNELEKTKVIKESFACNSPKGLIEYLRRQGYVDAVIVDIGNPGQDVDLKFIFMNFEQFGAAEYKRLEDYGLLFVPQKDALGFKSGLSLYQAQVMFTHNIKIADNLSFKDRHGNTLDCKVKNTSARLSSTRECVLNLELYSKGEMYYAK”, which “soluble on expression in E. coli” value is on record?
**A.** not soluble

**Q.** Which “soluble on expression in E. coli” value does the source give for “MGSDKIHHHHHHMLIISDAHANIHPLKYVIQREKFDKIVFCGDAVDYGPNPGETLDLLKENADVMVSGNHDYAAAYSVDCRCGEENHELSVFTRENITLKKLGKNDISFLRSLPNRMDMEIDGMKFQVMHGSPRDELYGYMYPWSVQDHLRSMLGSPLDPANYVVGHTHYQFLIRYAGNLVINPGSIGQPRDNPMPSYAVYDSSRNSVEFPRFDYDRSKLKEDIRSIISDQEILSGLYRLFSL” here?
**A.** not soluble

**Q.** Which “soluble on expression in E. coli” value does the source give for “MGSDKIHHHHHHMLILRARWWTNMCLICQRIDLIKKEENPYFVKELETGYLVVGDHQYFEGYSLFLAKEHVSELHHLKKETRLRFLEEMSLVQEAVAKAFAAEKMNIELLGNGDAHLHWHLFPRRTGDMNGHGLKGRGPVWWVPFEEMTAETCQAKPDEIKRLVKRLSSEVDKLLEIKE” here?
**A.** not soluble

**Q.** Which “soluble on expression in E. coli” value does the source give for “MGSDKIHHHHHHMLKEAISYSIADESVRIVQVTDPHLFADPEAQLLGVNTSKSLAAVLNTIRAVNYPAHLLLATGDLSQDYSPESYRQFVSAVAPLNLPCHYLPGNHDDPRIMFLHMQGERVFGQQRILVGKWQILMLDSTVRGKPGGHMGEGQFELIEQAIAAHPEHHTLLVMHHNPILVNCAWLDQHCMDNGAEFLRRVAQYPQVKALLWGHVHQQLDTYYDGPHRALQLMATPSTCIQFKPQSPYFALDGLQPGYRLLELKADGSISTNVYRVPGNLFSPDKDSSGY” here?
**A.** not soluble

**Q.** Which “soluble on expression in E. coli” value does the source give for “MGSDKIHHHHHHMLKMPSLKAVKSFVAAAKYQSFTRAAEALCVTQAAISRQIRELEAYMGVELFKRVGRAVELTEAGSAFFDAAQLSFVNISQAAKRVGAYKAGKSEVTLCCSAAFAALWLSPKLPGFFNDNQDIDLNLISTQNFLSMEPGVTPDIFITKFSSVHSGYRSYPLFHDVIFPVCTPRYRDEHPELATLEGLRDSALLNLSPYGRAQVAEHIDWGVWLAFHDTDIEKRTHNRPHVFSANDYNVVINMTLANQGVALGWSHLVAESLEKGALVRPIQKEVVHKDSQHYLAFKVDRESDRGCCRLRDWLLSHFA” here?
**A.** not soluble

**Q.** For “MGSDKIHHHHHHMLLAPEDKLNERRAEYPGIEVHPLKFCSSELQAGHWKFLMGAIGNQAAYIRQLGNIMRKNRNNLSIQAIRDGIQNSSLSDSLKDLADMRLDFAEQYIDDQLNVGSLIRPGRMIVVDVRDEFIEKDEALGLFVVLLQIFSEAKYQGQSFNKLIVFDECHKYIDSPDLVKGLVETVREMRHKGTSVMIASQDPPSVPIELIQLSSQIILHKFNAPDWLKHIQKACIGLKSLTPEKLGALKPGEAFIWSSKASDNAFVSDAMKIQCRPRVTKHGGDTLTAI”, which “soluble on expression in E. coli” value is on record?
**A.** not soluble

**Q.** Which “soluble on expression in E. coli” value does the source give for “MGSDKIHHHHHHMLMKGVTLRGLEVFEALAKSGSVAQAADITGLSQPAVSQQLRNLEKALGSDLVDHGRRPMVLTSAGRSFLSRTQAILSELRLAQSELTVMDLSHLPALSIGLIDDFDNDLTPRLATILADSLTQCRFKMVTASSHDIHRAMAEKDLHIGVAASTGELRTGVTEYPLVEEPFILVAPRGCITDPDDVGNQLNHLPLLRYARDQLISQQIESHLSRNKMEFDDRFEIGSHLALMAMVARRIGWAITTPLGYMRAVRFHEDIDAYALPFAGFSRRISLFAQSDWPDTVPLEVAGTVRRLTQSQMITPAINRLPWLAGQLRVIEE” here?
**A.** not soluble

**Q.** For “MGSDKIHHHHHHMLNNYMSILSLNENDNDIKSLTKARPLASIPIAGRYRIIDFILSNLVNSGVKNIGILTQCKSRSLLDHLGSGKPWDLDRKLNGLFIFNFSGITSTLSDIEMLKSNMEYLYRSTQEKVILSSSAVICNIDFQRAAEFHEKSGKDITLIYKRTNNGKRKFLNCSVLNMDKNNNVISIGKNTGLDDVQNISLGMFIMNKKLLINILNNCIRTGFSLSLKQCIRKHMNNFTVNAYEFNGYAEYIDSVKSYYKVNMDMLNLDINREVFFKNGLIYTKVKDEAPTKYFNDSEVCNSLIANGSLIHGQIENSIIGRRVTISKGARIKNCVIMQNCTIKENVDLTNVIVDKNVIIDENTVLKGGKEFPLVIEKKSIYSEV”, which “soluble on expression in E. coli” value is on record?
**A.** not soluble

**Q.** For “MGSDKIHHHHHHMLPNLKKALDGIVVCDFSWVGAGPIATNVLGQCGAEVIKIESKSRPDLLRTGGPFKDGINEGLERSGYFANRNPNKKGIALDMSHPKARAVAVRLIRKSDIVINNFRVGQMEKWGLGWEDVRKINPRIIYVTMSLQGETGPQKSYMGFGVNLNALCGLTAQACFPGERPFGTGTNYTDHVMAPSHTLFGIMAALLEREQTGEGQTVAISQLKSAISMAPTSAMTYAANGDTLGPAGLSDPNAAPHGLFTTLGYRRWIAIAVFSEDEWRALKKVMGNPAWAEDGKFGSLQSRKENEAELNEHMEAWTSRQHADKIMDELLRNGVRAGVVNDARGAIEDDHLREREFWSYLDHPVMGRTLYNRAPIRLSKTPLRMETAAPLLGQHTRDVLKGMLDYTDEEIAMLSEEKVLV”, which “soluble on expression in E. coli” value is on record?
**A.** not soluble

**Q.** For “MGSDKIHHHHHHMLQAFYTGLSGLNSYSKNLDNVSNNIANMNTAGYRGMDSFYQALGGDSDKPGLGAQISGLGYRFSVGDIRQTGNDFDLAITGTGFFALLDGEKVFYTRTGQFEFDQNNVLVDKNTGFKVAGIDSNGQLSEINLLSYQAIKPTATTKLSLTGNLSPLDDVHQISSAKMINSLGEEVDLSIKFTNEKATFPNQWKVEILDDKGIVLHSDSVKFGPDGTPEVGSGSFIFNLADSSGNTTPIDITVGTIGDFSAVTQTSATGVDSNVTLHAVDGKGVGQLVKRSFDPQGRVTLNYSNGDKVTPFTIAMVDFDDISTLSIESGTVFKASDLESRVLGKAGEGRFKQLATSSIEMSNVDLSQEFADMLVIQRGYQASSRILNVANQMIEQLYENTRGR”, which “soluble on expression in E. coli” value is on record?
**A.** not soluble

**Q.** For “MGSDKIHHHHHHMLRLSEIKLPLDHPPEAITTAILQKLKIQADELLGYEIFKRSYDARKKDAIVWVYILDLKVKNEAQLLKRFQKDPHVNPTPDMSYRVVAQAPEGLTERPVVIGAGPCGMFAALTLAQMGFRPILFERGKTVRDRTADTFAFWKKRGEFNPESNAQFGEGGAGTFSDGKLYSQVRDPQYYGRKVLTELVNSGANPEILYVNKPHIGTFKLVGVVQQMRARIEALGGEIHFQSRVESLHIEDRQVRGLRLTNGDYIPARHVVLAIGHSARDTFQMLFDQGVYIEAKPFSIGFRIEHPQPLIDRARFGPFAGHKSLGAADYKLVHHCQNGRTVYSFCMCPGGLVVAATSEPGRVVTNGMSQYSRNERNANSGIVVGITPEDYPGHPLAGIDLQRRLEAKAFELGGGTYEAPGQLVGDFLAGRPSQHLGTVRPSYAPGVHLTDLSESLPDYAIAAIREALPAFNRQIQGFALPDAMLTGVETRTSSPVRIKRGEDFQSLNTTGLFPAGEGAGYAGGILSAGIDGIKVAEAVALAMLRSQPQTV”, which “soluble on expression in E. coli” value is on record?
**A.** not soluble

**Q.** For “MGSDKIHHHHHHMLTWRKHGLIYSPQAHPPLIGGAGYAQSPQALVFDDFVRIYFSTRELDDKNNKFISRVSYVDMDKNLQEILKVSAAPVIAHAELGTFDEHGIFPFNVLRHNGAVMAWTTGWNRRVSVSVDTSIGLAISHDGGDTFQRHATGPVMSASLHEPYLVGDAFVQHIEGRFHMWYIYGVGWKRQQSDSPPDRIYKIAHAVSDDGIDWVRESKPIIADLLGDDECQALPTVIKVGNRYHMIFCYRECFDFRLGSGRGYRLGYAWSDDLVTWHRDDTQVPAVSESGEWDSEMQCYPHLFQCDEKVYLLYNGNAFGKEGFGLAELTACSE”, which “soluble on expression in E. coli” value is on record?
**A.** not soluble

**Q.** With “MGSDKIHHHHHHMLYQGVSLILAPLLVFQGLNVRRTTPRLPEPEGERVGQTGANPALSLLILGDSAAAGVGVAFQQHALLGQVIEQLSPQLEFSYGLFAKTGSTTSTTLQALQEQIDIAHPILGQTHFDVIVTSLGVNDITSSISCEKWLLQQKALFELITKRYTPKLILVTALPPLGLFPALPHPLRWSLGQRANQFNRQLQQLLIKLNQQVDQPTDFRLIKLPLENPQPDITMLEFMRQVMASDGFHPGAPIYSAWANLVVEQIVGGIKSAAIA” as the sequence, how does the “soluble on expression in E. coli” value read?
**A.** not soluble
